Test results published in patent publication US20260168005A1, “DRUG SCREENING METHOD BASED ON DRUG DISCOVERY CONCEPT OF CANCER CELL PROLIFERATION INHIBITION INDUCED BY DISRUPTION OF CHROMOSOME REGULATION DUE TO PLK1 KINASE ACTIVATION” (JAPANESE FOUNDATION FOR CANCER RESEARCH, priority 2022, published 2026).
No end group written: not given here.

What was measured:
recombinant GST-His-Plk1 = recombinant GST-His-Plk1 (Homo sapiens, UniProt P53350); test: Intramolecular TR-FRET assay of kinase domain / Polo-Box domain association; assay type: binding; conditions: Plk1 0 to 100 nM; pPON 0 to 1000 µM, PxVXL 25 to 100 µM; room temperature 1 hour, then GST-Tb and His-d2 3 hours (FIG. 7B)
recombinant GST-His-Plk1, sequence (P53350 whole entry, the tested form may be a part): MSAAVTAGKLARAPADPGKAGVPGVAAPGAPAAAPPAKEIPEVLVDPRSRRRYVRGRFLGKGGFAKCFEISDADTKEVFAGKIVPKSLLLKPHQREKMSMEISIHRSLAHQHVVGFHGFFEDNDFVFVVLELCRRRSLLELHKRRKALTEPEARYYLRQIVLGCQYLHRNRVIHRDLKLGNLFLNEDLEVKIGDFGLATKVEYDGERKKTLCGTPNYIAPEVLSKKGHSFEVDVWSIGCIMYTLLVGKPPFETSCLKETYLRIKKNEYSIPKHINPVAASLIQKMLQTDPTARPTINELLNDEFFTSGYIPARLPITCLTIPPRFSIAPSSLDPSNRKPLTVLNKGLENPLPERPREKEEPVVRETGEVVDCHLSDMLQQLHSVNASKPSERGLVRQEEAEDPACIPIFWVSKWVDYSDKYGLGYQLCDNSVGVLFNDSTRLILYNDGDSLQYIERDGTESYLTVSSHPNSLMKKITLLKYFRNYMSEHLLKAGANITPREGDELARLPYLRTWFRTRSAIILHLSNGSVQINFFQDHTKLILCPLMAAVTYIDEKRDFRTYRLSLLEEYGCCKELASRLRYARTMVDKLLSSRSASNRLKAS
Excerpt: In other words, it is an assay system that reflects the folding state within Plk1 molecules, and a screening system for drug discovery sees according to the mechanism of action of “inhibiting the suppressive association within the molecules to lead to kinase activation”. A fluorescence resonance energy transfer (FRET) assay system that detects the interaction of PBD that suppressively associates with the Plk1 kinase domain was constructed. The design was made as follows: a full-length recombinant protein was purified, and a donor (GST-Tb) were placed in the kinase domain and an acceptor (His-d2) in the PBD using antibodies that act as luminescent agents based on the conformational information so that the FRET reaction would efficiently occur.
A recombinant Plk1 in which a GST tag was added into a pFastBacl vector at the N-terminus, and a 6His-tag was inserted in the vicinity of the N-terminus of PB1 (Polo-Box 1) was constructed (left in FIG. 7A, GST-His-Plk1). […]
Intramolecular FRET analysis was performed using the recombinant GST-His-Plk1. […] Then, GST-Tb and His-d2 (PerkinElmer, Inc., MAb Anti-GST-Tb cryptate, MAb Anti-6HIS-d2) were added thereto to react at room temperature for 3 hours, and the emission signals were measured using the time-resolved fluorescence-fluorescence resonance energy transfer method (TR-FRET). […]

HeLa cells = test: Cell death on expression of GFP-tagged PON peptide, live cell imaging; assay type: cell-based; conditions: plasmid transfection, GFP tag at N-terminus, live cell imaging (FIG. 6B)
Excerpt: (§1) Plasmids that express WT ([…]: SEQ ID NO: 1) and a TA mutant (Plk1 unbound, […]: SEQ ID NO: 2) of the PON peptide with a GFP tag added to the N-terminus were introduced into HeLa cells by a plasmid transfection method with FuGENE HD transfection Reagent (Promega Corporation) and into RPE1 cells by a nucleofection method with 4D nucleofector (Lonza Group Ltd.). Since the PON peptide binds to the PBD upon phosphorylation by Cdk1, a TA mutant of the PON peptide in which the phosphorylation site was substituted with Ala was used as a negative control.
(§2) Observation was performed using live cell imaging, and the number of cells that underwent cell death in cells with GFP expression observed was counted. […] In other words, suppression of the association of the PBD and KD of endogenous Plk1 can cause significant cell growth suppression to be induced in cancer cells (FIG. 6B). From the fact that induction of cell death due to Plk1 activation is not observed in normal cells, compounds that activate Plk1 are expected to exert an effect in a cancer cell-specific manner.

RPE1 cells = test: as above; assay type: cell-based; conditions: RPE1 normal diploid cells, nucleofection, GFP tag at N-terminus, live cell imaging (FIG. 6B)
Excerpt: as §1, §2

[1] = biological target: recombinant GST-His-Plk1 (WT) (Homo sapiens, UniProt P53350); test: ADP-Glo kinase assay with dephosphorylated casein substrate; assay type: biochemical; conditions: pPON 0 to 1000 M; 0.5 μg dephosphorylated casein; 5 µM ATP; room temperature 1 hour (FIG. 10A)
recombinant GST-His-Plk1 (WT) (Homo sapiens, UniProt P53350), sequence (P53350 whole entry): as the sequence (P53350 whole entry, the tested form may be a part) above
Procedure: Further, the kinase activity of GST-His-Plk1 was evaluated by a kinase assay. First, it was confirmed that the kinase activity of the recombinant GST-His-Plk1, which contained a His-tag for FRET in the molecule, was equivalent to that of the one without the tag. Next, GST-His-Plk1 was used and mixed with 0.5 μg of dephosphorylated casein as a phosphorylation substrate in the presence of pPON ([…]), a kinase reaction was performed at room temperature for 1 hour in the presence of 5 µM of ATP, and a kinase reaction was performed between the recombinant GST-His-Plk1 (WT) (0 to 3.36 μM) and the dephosphorylated casein. Using an ADP-Glo (trademark) kinase assay kit (Promega Corporation), the kinase activity was measured by an ADP-Glo method, which quantifies in the […]. […] Also, the results of the kinase assays using the S137D/T210D mutant and S137D mutant also indicate that high kinase activity can be obtained when the intramolecular association is inhibited (FIG. 10B). Accordingly, the kinase assay can be used as a screening method that detects the association between the kinase domain and PBD of Plk1, and suppression of the association can be detected. Also, in the case of using the kinase assay for screening, a construct in which a kinase domain and PBD are separated can also be used.

endogenous Plk1 = endogenous Plk1 (UniProt P53350); test: cell-based or functional assay
endogenous Plk1, sequence (P53350 2-603 limits assumed): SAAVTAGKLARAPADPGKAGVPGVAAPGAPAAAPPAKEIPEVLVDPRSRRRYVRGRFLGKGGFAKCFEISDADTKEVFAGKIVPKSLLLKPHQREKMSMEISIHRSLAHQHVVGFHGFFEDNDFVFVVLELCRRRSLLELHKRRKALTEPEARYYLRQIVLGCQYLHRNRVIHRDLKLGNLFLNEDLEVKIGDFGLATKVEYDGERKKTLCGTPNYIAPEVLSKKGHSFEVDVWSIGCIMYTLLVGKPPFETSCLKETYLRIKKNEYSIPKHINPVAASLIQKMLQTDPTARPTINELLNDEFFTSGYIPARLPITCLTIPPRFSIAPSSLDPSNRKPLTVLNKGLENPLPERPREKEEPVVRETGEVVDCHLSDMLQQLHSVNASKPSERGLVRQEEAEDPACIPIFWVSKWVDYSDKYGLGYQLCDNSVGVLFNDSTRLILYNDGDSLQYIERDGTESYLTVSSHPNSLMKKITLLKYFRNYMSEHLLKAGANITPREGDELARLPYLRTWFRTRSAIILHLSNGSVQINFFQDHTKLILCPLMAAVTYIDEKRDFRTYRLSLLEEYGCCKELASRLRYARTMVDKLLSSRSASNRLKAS

[2] = biological target: T1, recombinant GST-His-Plk1 (WT) (UniProt P53350 2-603, limits assumed); test: intramolecular TR-FRET on GST-His-Plk1 (indirect read-out)
T1 construct: mature; Made in the Baculovirus/Sf9 system and purified on Glutathione Sepharose; also called Plk1 recombinant protein; wild-type GST-His-Plk1; not shown: N-terminal GST tag
T1 sequence (P53350 2-603 limits assumed): as above

Molecule | FRET signal (His-d2 relative to GST-Tb) (recombinant GST-His-Plk1) | death of cells (percentage of GFP-expressing cells that underwent cell death) (HeLa cells) | also measured
NHTQCQLVPVVEIGISERON (NHTQCQLVPVVEIGISERQN) [PxVXL, reference compound] | this effect was not observed | – | –
ESCFTNAAFSSTPKK [PON peptide] | – | ≥ 70% | increase in cell death (RPE1 cells): no increase in cell death was observed
pPON: pPON peptide (SEQ ID NO: 1) reacted with recombinant Plk1 in FRET and kinase assays (ESCFTNAAFSSTPKK; also: phosphorylated, position not given here) | FRET signals were reproducibly observed to gradually decrease | – | kinase activity [1]: kinase activity increased depending on the amount of pPON added
ESCFTNAAFSSAPKK [TA mutant, reference compound] | – | about 30% | –
PON peptide WT with a GFP tag added to the N-terminus | – | – | percentage of cell death in GFP-expressing HeLa cells (live cell imaging) (endogenous Plk1): > 70%
NHTQCQLVPVVEIGISERQN (Printed in the text as NHTQCQLVPVVEIGISERON; The 'O' may be a printing error) [PxVXL peptide (negative control peptide that does not bind to PLK1)] | – | – | binding result [2]: no binding (tested: 25 to 100 UM)
